PMC8167055

How the values were obtained:
[1] = molecular target: LC3B fused with mCherry (microtubule-associated protein light chain 3) (human) (UniProt Q9GZQ8); assay: ELISA; plate coated with 5 μg/ml mCherry-LC3B in PBS, blocked with BSA; serial dilutions of TPPP/p25 forms or SYN; detected by TPPP/p25 or SYN antibodies; apparent Kd from hyperbola with a single binding site
LC3B (Homo sapiens) = LC3B (Homo sapiens) (UniProt Q9GZQ8); conditions: cited from earlier work

| Substance | Kd [1] [nM] | Kd (LC3B (Homo sapiens)) [nM] |
| --- | --- | --- |
| Tubulin Polymerization Promoting Protein (TPPP/p25), human recombinant with hexaHis tag (from UniProt O94811 1-219) (natural protein; other documents disagree on this pair) | 21.5 |  |
| SQSTM1/p62 (from UniProt Q13501) |  | 1500 |
